# Results from US20240294895A1, “ENZYMATIC COMPOSITIONS FOR CARBOHYDRATE ANTIGEN CLEAVAGE ON DONOR ORGANS, METHODS AND USES ASSOCIATED THEREWITH” (THE UNIVERSITY OF BRITISH COLUMBIA, priority 2018, published 2024).
# B1: Flavonifractor plautii Galactosaminidase (FpGalNase) truncation _truncA (Flavonifractor plautii) (protein)
# chain: AAPATDTGNAGLIAEGDYAIAGNGVRVTYDADGQTITLYRTEGSGLIQMSKPSPLGGPVIGGQEVQDFSHISCDVEQSTSGVMGSGQRMTITSQSMSTGLIRTYVLETSDIEEGVVYTATSYEAGASDVEVSWFIGSVYELYGAEDRIWSYNGGGEGPMHYYDTLQKIDLTDSGKFSRENKQDDTAASIPVSDIYIADGGITVGDASATRREVHTPVQETSDSAQVSIGWPGKVIAAGSVIEIGESFAVVHPGDYYNGLRGYKNAMDHLGVIMPAPGDIPDSSYDLRWESWGWGFNWTIDLIIGKLDELQAAGVKQITLDDGWYTNAGDWALNPEKFPNGASDALRLTDAIHEHGMTALLWWRPCDGGIDSILYQQHPEYFVMDADGRPARLPTPGGGTNPSLGYALCPMADGAIASQVDFVNRAMNDWGFDGFKGDYVWSMPECYNPAHNHASPEESTEKQSEIYRVSYEAMVANDPNVFNLLCNCGTPQDYYSLPYMTQIATADPTSVDQTRRRVKAYKALMGDYFPVTADHNNIWYPSAVGTGSVLIEKRDLSGTAKEEYEKWLGIADTVQLQKGRFIGDLYSYGFDPYETYVVEKDGVMYYAFYKDGSKYSPTGYPDIELKGLDPNKMYRIVDYVNDRVVATNLMGDNAVFNTRFSDYLLVKAVEISEPDPEPVDPDYGFTSVDDRDEALIYTGTWHDDNNASFSEGTARYTNSTDASVVFSFTGTSIRWYGQRDTNFGTAEVYLDDELKTTVDANGAAEAGVCLFEALDLPAAEHTIKIVCKSGVIDIDRFAYEAATLEPIYEKVDALSDRITYVGNWEEYHNSEFYMGNAMRTDEAGAYAELTFRGTAVRLYAEMSFNFGTADVYLDGELVENIILYGQEATGQLMFERTGLEEGEHTIRLVQNAWNINLDYISYLPEQDQPTPPETTVTVDAMDAQLVYTGVWNDDYHDVFQEGTARYASSAGASVEFEFTGSEIRWYGQNDSNFGVASVYIDNEFVQQVNVNGAAAVGKLLFQKADLPAGSHTIRIVCDTPVIDLDYLTYTTNA
# B2: Flavonifractor plautii GalNAcDeacetylase FpGalNAcDeAc_D1min, WT (Flavonifractor plautii) (protein)
# chain: ADSSESALNKAPGYQDFPAYYSDSAHADDQVTHPDVVVLEEPWNGYRYWAVYTPNVMRISIYENPSIVASSDGVHWVEPEGLSNPIEPQPPSTRYHNCDADMVYNAEYDAMMAYWNWADDQGGGVGAEVRLRISYDGVHWGVPVTYDEMTRVWSKPTSDAERQVADGEDDFITAIASPDRYDMLSPTIVYDDFRDVFILWANNTGDVGYQNGQANFVEMRYSDDGITWGEPVRVNGFLGLDENGQQLAPWHQDVQYVPDLKEFVCISQCFAGRNPDGSVLHLTTSKDGVNWEQVGTKPLLSPGPDGSWDDFQIYRSSFYYEPGSSAGDGTMRVWYSALQKDTNNKMVADSSGNLTIQAKSEDDRIWRIGYAENSFVEMMRVLLDDPGYTTPALVSGNSLMLSAETTSLPTGDVMKLETSFAPVDTSDQVVKYTSSDPDVATVDEFGTITGVSVGSARIMAETREGLSDDLEIAVVENPYTLIPQSNMTATATSVYGGTTEGPASNVLDGNVRTIWHTNYAPKDELPQSITVSFDQPYTVGRFVYTPRQNGTNGIISEYELYAIHQDGSKDLVASGSDWALDAKDKTVSFAPVEAVGLELKAIAGAGGFGTAAELNVYAYGPIEPAPVYVPVDDRDASLVFTGAWNSDSNGSFYEGTARYTNEIGASVEFTFVGTAIRWYGQNDVNFGAAEVYVDGVLAGEVNVYGPAAAQQLLFEADGLAYGKHTIRIVCVSPVVDFDYFSYVGE
# B3: Flavonifractor plautii GalNAcDeacetylase (FpGalNAcDeAc) truncation _D1ext (Flavonifractor plautii) (protein)
# chain: B2 chain
# B4: Flavonifractor plautii GalNAcDeacetylase (FpGalNAcDeAc) truncation _D1 + 2 (Flavonifractor plautii) (protein)
# chain: B2 chain
# Columns and labels:
# Type in all cases: biochemical, Flavonifractor plautii
# [1] = substrate: CC(=O)N[C@H]1[C@H](O[C@H]2[C@@H](O)[C@@H](CO)O[C@@H](Oc3ccc4c(C)cc(=O)oc4c3)[C@@H]2O)O[C@H](CO)[C@@H](O)[C@@H]1O[C@@H]1O[C@H](CO)[C@H](O)[C@H](O[C@H]2O[C@H](CO)[C@H](O)[C@H](O)[C@H]2N)[C@H]1O[C@@H]1O[C@@H](C)[C@@H](O)[C@@H](O)[C@@H]1O; experiment: Kinetic parameters of FpGalNase_truncA (coupled fluorescence assay, MU release); settings: other: 100 mM NaH2PO4, pH 7.4, 37° C.
# Experimental: (§1) All kinetic assays utilizing 4-methylumbelliferone as leaving group were performed through measurement of fluorescence. To avoid measurement errors based on the inner filter effect (Palmier 2007) standard curves were used to validate the linear range of the fluorophore.
# Michaelis-Menten parameter was determined for GalN antigen subtype 1penta-MU and A antigen subtype 1penta-MU in 100 mM NaH2PO4, pH 7.4 at 37° C. Reaction was performed in 100 μl with 3.4 nM FpGalactosaminidase (5.31 nM FpGalNase_truncA) and 0.1 mg/mL SpHex, AfcA, 0.2 mg/mL BgaC and varying concentrations of substrate (5 μM-2 mM). The reactions were run as a series of four with controls (no FpGalactosaminidase) as duplicates. The fluorescence signal (365/435 nm) resulting from MU release by hydrolysis was monitored by Synergy H1™ plate reader [BioTek™] and converted to concentration using MU standard concentration curves determined under identical reaction conditions. Initial rates (μM/s) were determined and plotted in Grafit 7.0™ to determine the kinetic parameters.
# [2] = substrate: CC(=O)N[C@H]1[C@H](Oc2ccc3c(C)cc(=O)oc3c2)O[C@H](CO)[C@@H](O[C@@H]2O[C@H](CO)[C@H](O)[C@H](O[C@H]3O[C@H](CO)[C@H](O)[C@H](O)[C@H]3NC(C)=O)[C@H]2O[C@@H]2O[C@@H](C)[C@@H](O)[C@@H](O)[C@@H]2O)[C@@H]1O; experiment: Cleavage of A antigen Type2tetra-MU by FpGalNAcDeAc_D1min WT; settings: other: WT, pH 7.4, 37° C.
# Experimental: kcat/KM parameter were determined for A antigen subtype 1/2/4tetra-MU at pH 7.4 at 37° C. Reactions (total volume of 100 μL) were performed in black 96-plate wells and as coupled assays in 100 mM NaH2PO4 (pH 7.4) with 12 nM FpGalNAcDeacetylase 0.1 mg/mL SpHex, BgaC (BgaA for subtype II), AfcA, at varying concentrations of substrate (25 μM, 20 μM, 15 μM, 10 μM, 7.5 μM, 5 μM). The reactions were run as a series of four with controls (no FpGalNAcDeacetylase) as duplicates. The fluorescence signal (365/435 nm) resulting from MU release by hydrolysis was monitored on a Synergy H1™ plate reader (BioTek™) and converted to concentration using MU standard concentration curves determined under identical reaction conditions. Initial rates (μM/s) were determined and plotted in Grafit™ 7.0 to determine the kcat/KM (s^−1*mM^−1) parameters.
# Based on structural information (not shown) and sequence alignment (not shown) FpGalNAcDeAc_D1min and FpGalNase_truncA were mutated using the QuickChange™ protocol (Zhang 2004), utilizing the primers noted in TABLE B. The mutants were purified via NiNTA and HIC columns as described above. The structural integrity of all mutants was checked via CD spectroscopy; all tested enzymes were structurally similar to their wild-type. […]
# [3] = substrate: CC(=O)N[C@H]1[C@@H](O[C@H]2[C@@H](O)[C@@H](CO)O[C@@H](O[C@H]3[C@H](O)[C@@H](CO)O[C@@H](O[C@H]4[C@@H](O)[C@@H](CO)O[C@@H](Oc5ccc6c(C)cc(=O)oc6c5)[C@@H]4O)[C@@H]3NC(C)=O)[C@@H]2O[C@@H]2O[C@@H](C)[C@@H](O)[C@@H](O)[C@@H]2O)O[C@H](CO)[C@H](O)[C@@H]1O; experiment: Kinetic parameters of FpGalNAcDeAc_D1ext (coupled fluorescence assay, MU release); settings: other: 100 mM NaH2PO4, pH 7.4, 37° C.
# Experimental: as §1
# (§2) Michaelis-Menten parameters were determined for A antigen subtype 1penta-MU in 100 mM NaH2PO4, pH 7.4 at 37° C. using the coupled assays described previously (Kwan 2015). The assay was modified to allow detection of cleavage of the subtype 1 (and later 4), by use of BgaC (Jeong 2009) instead of BgaA (Singh 2014) as β-galactosidase. In addition, since A antigen subtype 1penta-MU contains an additional galactose, the concentration of BgaC was increased to 0.2 mg/mL to compensate for its need to cleave both the Gal-β-1,3-B-GlcNAc-β-1,3-Gal-β-MU and Gal-β-MU. Further, FpGalactosaminidase was included to allow the cleavage of the galactosamine-containing intermediate. Reaction setup in 100 μl was 3 nM FpGalNacDeacetylase (4.52 nM FpGalNacDeAc_D1ext, 3.55 nM FpGalNacDeAc_D1+2) and 0.01 mg/mL FpGalactosaminidase, 0.1 mg/mL SpHex, AfcA, 0.2 mg/mL BgaC and varying concentrations of substrate (5 μM-2.5 mM). The reactions were run as a series of four with controls (no FpGalNacDeacetylase) as duplicates. The fluorescence signal (365/435 nm) resulting from MU release by hydrolysis was monitored on a Synergy H1™ plate reader (BioTek™) and converted to concentration using MU standard concentration curves determined under identical reaction conditions. Initial rates (μM/s) were determined and plotted in Grafit 7.0 to determine the kinetic parameters.
# [4] = substrate: CC(=O)N[C@H]1[C@@H](O[C@H]2[C@@H](O)[C@@H](CO)O[C@@H](O[C@H]3[C@H](O)[C@@H](CO)O[C@@H](O[C@H]4[C@@H](O)[C@@H](CO)O[C@@H](Oc5ccc6c(C)cc(=O)oc6c5)[C@@H]4O)[C@@H]3NC(C)=O)[C@@H]2O[C@@H]2O[C@@H](C)[C@@H](O)[C@@H](O)[C@@H]2O)O[C@H](CO)[C@H](O)[C@@H]1O; experiment: Kinetic parameters of FpGalNAcDeAc_D1+2 (coupled fluorescence assay, MU release); settings: other: 100 mM NaH2PO4, pH 7.4, 37° C.
# Experimental: as §1, §2
protein,measurement,setting,value
B1,Km,[1],54.7 ± 3.1 µM
same,kcat,[1],1.86 s⁻¹
same,kcat/Km,[1],34080 M⁻¹ s⁻¹
B2,kcat/Km,[2],8210 ± 2070 M⁻¹ s⁻¹
B3,Km,[3],212 ± 37 µM
same,kcat,[3],5.37 s⁻¹
same,kcat/Km,[3],25230 M⁻¹ s⁻¹
B4,Km,[4],265 ± 43 µM
same,kcat,[4],9.99 s⁻¹
same,kcat/Km,[4],37590 M⁻¹ s⁻¹
